Source: patent US11274129B2, “Methods for protein tyrosine phosphorylation profiling with variant SH2 domains” (priority 2016, dated 2022)

System: pTyr-including peptides from pervanadate-treated Jurkat cells
Assay: Enrichment of pTyr-including peptides from pervanadate-treated Jurkat cells by affinity reagents, 1D LC-MS/MS
Parameters: species or system human
Conditions: 3 mg Jurkat peptides
Description: Experiments were conducted to determine the relative efficacy of the variant Src SH2 domains and commonly used anti-pTyr antibodies as affinity reagents for pTyr-including peptides from biological samples. His6/GST-tagged TrM Src SH2 domain (SEQ ID NO: 11) and His6-tagged QuadM Src SH2 domain (SEQ ID NO: 13), as well as anti-pTyr antibodies, were prepared in functionally-equivalent molar amounts by using half the molar amount of the antibodies relative to the SH2 domain variants given that each antibody molecule has two binding sites for its antigen.
The first experiment tested the relative ability of the following affinity reagents to extract pTyr-including peptides from a peptide mixture prepared from Jurkat cells: a His6/GST-tagged TrM Src SH2 (SEQ ID NO: 11), a His6-tagged QuadM Src SH2 (SEQ ID NO: 13), the anti-pTyr antibody 4G10 (agarose conjugate, obtained from Millipore), and a mixture of commercially-available anti-pTyr antibodies. […] The two SH2 affinity reagents were also tested at a 30× amount; the antibodies were not tested at a 30× amount due to the prohibitive cost of doing so. The purified SH2 affinity reagents were prepared as described in Example 1. The antibody mixture contained 4G10 (as above), PY99 (obtained from Santa Cruz Biotechnology), and P-Tyr-100 (slurry of PTMScan® Phospho-Tyrosine Mouse mAb, obtained from Cell Signaling Technology). Since the concentration of P-Tyr-100 is unknown, the amount was used as recommended by the vendor (i.e., 4 μL for 1 mg peptide digest).
FIG. 2A presents a schematic of the experimental design. Each amount of His6-tagged SH2 domain variant or antibody was subjected to a binding experiment with 3 mg of a peptide mixture prepared from pervanadate-treated Jurkat cells.
Jurkat cells (obtained from ATCC) were cultured in a humidified atmosphere of 5% CO2 at 37° C. in Roswell Park Memorial Institute 1640 medium (RPMI-1640) supplemented with 10% bovine serum and 100 U/mL of streptomycin and penicillin.
The cells were again collected by centrifugation. The cell pellets were gently homogenized in an ice-cold lysis buffer containing 8 M urea, 50 mM tris(hydroxymethyl)aminomethane (Tris)-HCl (pH 7.4), 2% protease inhibitor cocktail (v/v, obtained from Sigma-Aldrich), 1% Triton X-100 (v/v), 1 mM NaF, and 1 mM Na3VO4, followed by sonication at 400 W for 120 s. After centrifugation at 25,000 g for 1 h, proteins were precipitated in ice-cold acetone/ethanol/acetic acid (50/50/0.1, V/V/V) solution. Subsequently, the proteins were diluted in reducing buffer containing 100 mM triethylammonium bicarbonate (TEAB) buffer (pH 8.2) and 8 M urea, and the final protein concentration was determined by Bradford assay. The protein suspension was reduced in 10 mM dithiothreitol (DTT) at 37° C. for 2 h, and it was then alkylated in 20 mM iodoacetamide (IAA) in darkness at room temperature for another 30 min. Trypsin digestion was performed at 37° C. overnight with an enzyme-to-protein ratio of 1/25 (w/w). The resulting peptide mixture was stored at −80° C. for further analysis.
Desalted Jurkat peptides (30 mg) were dissolved in ice-cold immunoaffinity purification (IAP) buffer and then split into 10 aliquots with 3 mg of Jurkat peptides each. Binding experiments were performed with the amounts of antibody (1×, 5×) or SH2 domain variant (1×, 5×, 30×) set out in Table 1 and FIG. 2A.
For antibody-based enrichment, 4G10 or the antibody mixture was incubated with the sample at 4° C. overnight while rotating. The beads were washed three times with ice-cold IAP buffer and twice with ice-cold water. To release the bound peptides, the beads were eluted twice with 200 μL 0.15% trifluoroacetic acid (TFA) for 15 min at room temperature.
For SH2-based enrichment, Ni-NTA beads containing the purified SH2 proteins were washed extensively in twenty column volumes of PBS buffer (pH 7.0) containing 20 mM imidazole. […] The washed beads were incubated with the peptide mixture at 4° C. overnight while rotating. […]

B1: Triple mutant: TrM human Src SH2 domain variant with Thr183Val, Cys188Ala and Lys206Leu; His6/GST-tagged form SEQ ID NO: 11 (protein)
chain: DSIQAEEWYFGKITRRESERLLLNAENPRGTFLVRESETVKGAYALSVSDFDNAKGLNVKHYLIRKLDSGGFYITSRTQFNSLQQLVAYYSKHADGLCHRLTTVCPTSK
modifications: SH2 protein domain; TrM human Src SH2 domain
Number of pTyr sites identified (0.375 nmol (1x) pTyr-binding sites): 578
Number of pTyr sites identified (1.875 nmol (5x) pTyr-binding sites): 1060
Number of pTyr sites identified (11.25 nmol (30x) pTyr-binding sites): 1165
